Test results taken from the supplement of paper PMC11316812.
± gives the standard deviation of the averaged measurements.

Tests used:
MCF7 = test: percentage of EdU-negative (G0-arrested) nuclei per well, 72 h; higher = more G0 arrest; conditions: reference: sequence is the full UniProt precursor, the tested protein was the secreted form or ectodomain
hTERT-HMEC = test: as above; conditions: reference: sequence is the full UniProt precursor, the tested protein was the secreted form or ectodomain
[1] = protein concentration 0.0225 µM
[2] = protein concentration 0.023015 µM
[3] = protein concentration 0.23015 µM
[4] = protein concentration 0.0308571 µM
[5] = protein concentration 0.308571 µM
[6] = protein concentration 0.007835 µM
[7] = protein concentration 0.07835 µM
[8] = protein concentration 0.027265 µM
[9] = protein concentration 0.27265 µM
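Further: secreted proteins added to cultured cells, EdU pulse at the end, nuclei found by Hoechst imaging, EdU status from nuclear versus surrounding ring intensity ratio, PBS as neutral control.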

Sequence: MWSGWWLWPLVAVCTADFFRDEAERIMRDSPVIDGHNDLPWQLLDMFNNRLQDERANLTTLAGTHTNIPKLRAGFVGGQFWSVYTPCDTQNKDAVRRTLEQMDVVHRMCRMYPETFLYVTSSAGIRQAFREGKVASLIGVEGGHSIDSSLGVLRALYQLGMRYLTLTHSCNTPWADNWLVDTGDSEPQSQGLSPFGQRVVKELNRLGVLIDLAHVSVATMKATLQLSRAPVIFSHSSAYSVCASRRNVPDDVLRLVKQTDSLVMVNFYNNYISCTNKANLSQVADHLDHIKEVAGARAVGFGGDFDGVPRVPEGLEDVSKYPDLIAELLRRNWTEAEVKGALADNLLRVFEAVEQASNLTQAPEEEPIPLDQLGGSCRTHYGYSSGASSLHRHWGLLLASLAPLVLCLSLL
- percentage of EdU-negative (MCF7; [1]): 25 ± 0.35%
- percentage of EdU-negative (MCF7; protein concentration 0.225 µM): 25.2 ± 0.86%
- percentage of EdU-negative (hTERT-HMEC; [1]): 5.01 ± 0.58%
- percentage of EdU-negative (hTERT-HMEC; protein concentration 0.225 µM): 5.87 ± 0.22%

Sequence: MLAVGCALLAALLAAPGAALAPRRCPAQEVARGVLTSLPGDSVTLTCPGVEPEDNATVHWVLRKPAAGSHPSRWAGMGRRLLLRSVQLHDSGNYSCYRAGRPAGTVHLLVDVPPEEPQLSCFRKSPLSNVVCEWGPRSTPSLTTKAVLLVRKFQNSPAEDFQEPCQYSQESQKFSCQLAVPEGDSSFYIVSMCVASSVGSKFSKTQTFQGCGILQPDPPANITVTAVARNPRWLSVTWQDPHSWNSSFYRLRFELRYRAERSKTFTTWMVKDLQHHCVIHDAWSGLRHVVQLRAQEEFGQGEWSEWSPEAMGTPWTESRSPPAENEVSTPMQALTTNKDDDNILFRDSANATSLPVQDSSSVPLPTFLVAGGSLAFGTLLCIAIVLRFKKTWKLRALKEGKTSMHPPYSLGQLVPERPRPTPVLVPLISPPVSPSSLGSDNTSSHNRPDARDPRSPYDISNTDYFFPR
- percentage of EdU-negative (MCF7; [2]): 25.4 ± 3%
- percentage of EdU-negative (MCF7; [3]): 24.4 ± 1.3%
- percentage of EdU-negative (hTERT-HMEC; [2]): 5.6 ± 1.1%
- percentage of EdU-negative (hTERT-HMEC; [3]): 5.05 ± 0.44%

Sequence: MAQLCGLRRSRAFLALLGSLLLSGVLAADRERSIHDFCLVSKVVGRCRASMPRWWYNVTDGSCQLFVYGGCDGNSNNYLTKEECLKKCATVTENATGDLATSRNAADSSVPSAPRRQDSEDHSSDMFNYEEYCTANAVTGPCRASFPRWYFDVERNSCNNFIYGGCRGNKNSYRSEEACMLRCFRQQENPPLPLGSKVVVLAGLFVMVLILFLGASMVYLIRVARRNQERALRTVWSSGDDKEQLVKNTYVL
- percentage of EdU-negative (MCF7; [1]): 24.2 ± 2%
- percentage of EdU-negative (MCF7; protein concentration 0.225 µM): 25.4 ± 0.69%
- percentage of EdU-negative (hTERT-HMEC; [1]): 4.91 ± 0.26%
- percentage of EdU-negative (hTERT-HMEC; protein concentration 0.225 µM): 5.37 ± 0.98%

Sequence: MARLGNCSLTWAALIILLLPGSLEECGHISVSAPIVHLGDPITASCIIKQNCSHLDPEPQILWRLGAELQPGGRQQRLSDGTQESIITLPHLNHTQAFLSCCLNWGNSLQILDQVELRAGYPPAIPHNLSCLMNLTTSSLICQWEPGPETHLPTSFTLKSFKSRGNCQTQGDSILDCVPKDGQSHCCIPRKHLLLYQNMGIWVQAENALGTSMSPQLCLDPMDVVKLEPPMLRTMDPSPEAAPPQAGCLQLCWEPWQPGLHINQKCELRHKPQRGEASWALVGPLPLEALQYELCGLLPATAYTLQIRCIRWPLPGHWSDWSPSLELRTTERAPTVRLDTWWRQRQLDPRTVQLFWKPVPLEEDSGRIQGYVVSWRPSGQAGAILPLCNTTELSCTFHLPSEAQEVALVAYNSAGTSRPTPVVFSESRGPALTRLHAMARDPHSLWVGWEPPNPWPQGYVIEWGLGPPSASNSNKTWRMEQNGRATGFLLKENIRPFQLYEIIVTPLYQDTMGPSQHVYAYSQEMAPSHAPELHLKHIGKTWAQLEWVPEPPELGKSPLTHYTIFWTNAQNQSFSAILNASSRGFVLHGLEPASLYHIHLMAASQAGATNSTVLTLMTLTPEGSELHIILGLFGLLLLLTCLCGTAWLCCSPNRKNPLWPSVPDPAHSSLGSWVPTIMEEDAFQLPGLGTPPITKLTVLEEDEKKPVPWESHNSSETCGLPTLVQTYVLQGDPRAVSTQPQSQSGTSDQVLYGQLLGSPTSPGPGHYLRCDSTQPLLAGLTPSPKSYENLWFQASPLGTLVTPAPSQEDDCVFGPLLNFPLLQGIRVHGMEALGSF
- percentage of EdU-negative (MCF7; [4]): 27.8 ± 0.38%
- percentage of EdU-negative (MCF7; [5]): 29.5 ± 3%
- percentage of EdU-negative (hTERT-HMEC; [4]): 5.21 ± 0.22%
- percentage of EdU-negative (hTERT-HMEC; [5]): 10.7 ± 1.1%

Sequence: MLPARCARLLTPHLLLVLVQLSPARGHRTTGPRFLISDRDPQCNLHCSRTQPKPICASDGRSYESMCEYQRAKCRDPTLGVVHRGRCKDAGQSKCRLERAQALEQAKKPQEAVFVPECGEDGSFTQVQCHTYTGYCWCVTPDGKPISGSSVQNKTPVCSGSVTDKPLSQGNSGRKDDGSKPTPTMETQPVFDGDEITAPTLWIKHLVIKDSKLNNTNIRNSEKVYSCDQERQSALEEAQQNPREGIVIPECAPGGLYKPVQCHQSTGYCWCVLVDTGRPLPGTSTRYVMPSCESDARAKTTEADDPFKDRELPGCPEGKKMEFITSLLDALTTDMVQAINSAAPTGGGRFSEPDPSHTLEERVVHWYFSQLDSNSSNDINKREMKPFKRYVKKKAKPKKCARRFTDYCDLNKDKVISLPELKGCLGVSKEGRLV [Q9H4F8]
- percentage of EdU-negative (MCF7; [6]): 26.5 ± 1.4%
- percentage of EdU-negative (MCF7; [7]): 31.1 ± 0.71%
- percentage of EdU-negative (hTERT-HMEC; [6]): 4.85 ± 0.098%
- percentage of EdU-negative (hTERT-HMEC; [7]): 16.6 ± 0.68%

Sequence: MFFWCACCLMVAWRVSASDAEHCPELPPVDNSIFVAKEVEGQILGTYVCIKGYHLVGKKTLFCNASKEWDNTTTECRLGHCPDPVLVNGEFSSSGPVNVSDKITFMCNDHYILKGSNRSQCLEDHTWAPPFPICKSRDCDPPGNPVHGYFEGNNFTLGSTISYYCEDRYYLVGVQEQQCVDGEWSSALPVCKLIQEAPKPECEKALLAFQESKNLCEAMENFMQQLKESGMTMEELKYSLELKKAELKAKLL
- percentage of EdU-negative (MCF7; [1]): 24.2 ± 1.2%
- percentage of EdU-negative (MCF7; protein concentration 0.225 µM): 27.8 ± 3.5%
- percentage of EdU-negative (hTERT-HMEC; [1]): 5.33 ± 0.68%
- percentage of EdU-negative (hTERT-HMEC; protein concentration 0.225 µM): 12 ± 1.5%

Sequence: MPDTMLPACFLGLLAFSSACYFQNCPRGGKRAMSDLELRQCLPCGPGGKGRCFGPSICCADELGCFVGTAEALRCQEENYLPSPCQSGQKACGSGGRCAAFGVCCNDESCVTEPECREGFHRRARASDRSNATQLDGPAGALLLRLVQLAGAPEPFEPAQPDAY
- percentage of EdU-negative (MCF7; [8]): 24 ± 0.36%
- percentage of EdU-negative (MCF7; [9]): 24.4 ± 0.13%
- percentage of EdU-negative (hTERT-HMEC; [8]): 5.39 ± 0.55%
- percentage of EdU-negative (hTERT-HMEC; [9]): 5.52 ± 1.1%
